Measurements taken from publication doi:10.1101/695700.

Assays:
[1] = molecular target: recombinant HC1 (rHC1), wild type; heavy chain 1 of inter-α-inhibitor (human) (UniProt P19827); assay: SPR
[2] = molecular target: complement C3; assay: SPR

Chain of recombinant HC1 (rHC1), wild type; heavy chain 1 of inter-α-inhibitor (human) (P19827 35-672): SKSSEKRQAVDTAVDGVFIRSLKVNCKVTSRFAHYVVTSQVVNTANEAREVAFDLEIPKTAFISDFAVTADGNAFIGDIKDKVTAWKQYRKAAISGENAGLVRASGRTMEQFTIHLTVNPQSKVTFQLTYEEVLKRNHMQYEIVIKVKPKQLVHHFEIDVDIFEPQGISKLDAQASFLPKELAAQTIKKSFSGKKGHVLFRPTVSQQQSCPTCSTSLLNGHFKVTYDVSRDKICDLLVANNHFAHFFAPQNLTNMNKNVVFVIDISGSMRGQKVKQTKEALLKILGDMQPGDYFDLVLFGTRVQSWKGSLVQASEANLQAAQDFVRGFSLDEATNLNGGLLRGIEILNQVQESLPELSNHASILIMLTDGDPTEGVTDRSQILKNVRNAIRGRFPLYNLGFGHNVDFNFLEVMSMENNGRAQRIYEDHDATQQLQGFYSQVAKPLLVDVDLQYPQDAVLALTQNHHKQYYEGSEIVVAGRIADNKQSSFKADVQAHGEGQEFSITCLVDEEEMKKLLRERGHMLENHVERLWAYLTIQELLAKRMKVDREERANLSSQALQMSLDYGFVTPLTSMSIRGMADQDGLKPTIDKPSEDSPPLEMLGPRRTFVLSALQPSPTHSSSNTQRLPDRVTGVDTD

| Substance | Kd [1] [nM] | Kd [2] [nM] |
| --- | --- | --- |
| LAP (latency-associated peptide from TGFβ1) (domain or fragment) | 2 | – |
| TGFβ1-LAP (small latent complex of TGFβ1) (from UniProt P01137 30-278) | 10 | – |
| TGFβ2-LAP (small latent complex of TGFβ2) (from UniProt P61812 21-302) | 10 | – |
| TGFβ3-LAP (small latent complex of TGFβ3) (from UniProt P10600 24-300) | 10 | – |
| inter-α-inhibitor (IαI) (from UniProt P19827 35-672; P19823 55-702) (complex) | – | 660 |
